From PMC9525012, “Characterization of sabatolimab, a novel immunotherapy with immuno-myeloid activity directed against TIM-3 receptor” (Immunotherapy Advances, 2022)
Several values for one entry are separate records, joined by “and”; a condition that tells them apart may be missing. Identical values can stand only once.

B1: Sabatolimab, humanized anti-TIM-3 monoclonal antibody (hIgG4, S228P) (antibody, V domains shown)
VH: QVQLVQSGAEVKKPGSSVKVSCKASGYTFTSYNMHWVRQAPGQGLEWMGDIYPGNGDTSYNQKFKGRVTITADKSTSTVYMELSSLRSEDTAVYYCARVGGAFPMDYWGQGTTVTVSS
VL: AIQLTQSPSSLSASVGDRVTITCRASESVEYYGTSLMQWYQQKPGKAPKLLIYAASNVESGVPSRFSGSGSGTDFTLTISSLQPEDFATYFCQQSRKDPSTFGGGTKVEIKR
notes: whole heavy chain as printed; whole kappa light chain as printed; IgG4/kappa; humanized from the murine monoclonal antibody 22C1; also called MBG453; sabatolimab whole antibody; source: CHO cells, transiently produced (told of the ten selected humanized clones)

Experiments:
[1] = biological target: human TIM-3-Fc fusion protein (human) (UniProt Q8TDQ0); experiment: other; competition with SULFO-TAG galectin-9, MSD
[2] = biological target: T1, human TIM-3 expressed on 300.19 cells (human, UniProt Q8TDQ0 22-301); experiment: flow cytometry on cells; 300.19 cells expressing human or cynomolgus TIM-3 incubated with titrated sabatolimab at 4°C for 4 hours; PE anti-hIgG secondary; Kd from best-fit binding curves (GraphPad Prism); conditions: one partner purified
T1 construct: TIM-3, human, expressed on the surface of 300.19 cells; Also used for the functional rows on cells that express human TIM-3 (Raji hTIM-3 o.e., HNT-34, dendritic cells); source: 300.19 cells engineered to express human TIM-3 (lab of Gordon Freeman)

[3] = biological target: T2, recombinant human TIM-3/His (human, UniProt Q8TDQ0 22-202); experiment: SPR; Biacore; sabatolimab captured (~50 RU) by a human Fab capture antibody amine-coupled on a CM5 chip; TIM-3/His as analyte, 90 nM diluted 1:3, seven concentrations, HBS-EP+ buffer; 1:1 binding model, double reference subtraction; conditions: both partners purified
T2 construct: T-cell immunoglobulin domain and mucin domain-3 (TIM-3), human; Probably the extracellular domain (surmised); also called human recombinant TIM-3; source: bought: Sino Biological Inc

[4] = biological target: cynomolgus monkey TIM-3 expressed on 300.19 cells (cynomolgus monkey); experiment: flow cytometry on cells; 300.19 cells expressing human or cynomolgus TIM-3 incubated with titrated sabatolimab at 4°C for 4 hours; PE anti-hIgG secondary; Kd from best-fit binding curves (GraphPad Prism)

Molecule	IC50 [1]	Kd [2]	Kd [3]	Kd [4]
sabatolimab Fab'2	9.81 nM	–	–	–
B1	–	0.5 ± 0.1 nM	0.176 nM and 0.162 nM and 0.163 nM	0.9 nM
